These results are taken from EP2225268B1.

For test [1], the target named is Wild-type recombinant human NGAL dimer expressed in CHO cells (human) (UniProt P80188). As to the kind of experiment: … sandwich CMIA, capture HYB 211-01, detection acridinium-HYB 211-02; NGAL 5 ng/mL.
In test [2] the target is Wild-type recombinant human NGAL dimer calibrators treated with DTT (human) (UniProt P80188). The description is as above.
The target of test [3] is Native NGAL purchased from Diagnostics Development (Uppsala, Sweden), non-reduced (UniProt P80188). Described as above.
Test [4] concerns the target Wild-type recombinant human NGAL monomer expressed in CHO cells (human) (UniProt P80188). The test is described as above.
The target in test [5] is Wild-type recombinant human NGAL dimer expressed in CHO cells (human) (UniProt P80188). The experiment in a line: … sandwich CMIA, capture HYB 211-01, detection acridinium-HYB 211-02; NGAL 600 ng/mL.
Test [6] has as its target Native NGAL (plus DTT - reduced) (UniProt P80188). The experiment in a line: … sandwich CMIA, capture HYB 211-01, detection acridinium-HYB 211-02; same sample reduced with DTT.
Test [7] concerns the target Wild-type recombinant human NGAL dimer expressed in CHO cells (human) (UniProt P80188). As to the kind of experiment: … sandwich CMIA, capture HYB 211-01, detection acridinium-HYB 211-02; calibrator C, NGAL 50 ng/mL.
Test [8] has as its target Wild-type recombinant human NGAL dimer calibrators treated with DTT (human) (UniProt P80188). The test is described as above.
The target in test [9] is Wild-type recombinant human NGAL monomer expressed in CHO cells (human) (UniProt P80188). The description is as above.
The target of test [10] is Wild-type recombinant human NGAL dimer expressed in CHO cells (human) (UniProt P80188). The experiment in a line: … sandwich CMIA, capture HYB 211-01, detection acridinium-HYB 211-02; curve fit with monomer calibrators; target 5 ng/mL.
Test [11] deals with Wild-type recombinant human NGAL dimer calibrators treated with DTT (human) (UniProt P80188). The description is as above.
Test [12] concerns the target Wild-type recombinant human NGAL monomer expressed in CHO cells (human) (UniProt P80188). Described as above.
The target of test [13] is Wild-type recombinant human NGAL dimer expressed in CHO cells (human) (UniProt P80188). The experiment in a line: … sandwich CMIA, capture HYB 211-01, detection acridinium-HYB 211-02; NGAL 50 ng/mL.
The target of test [14] is Wild-type recombinant human NGAL dimer calibrators treated with DTT (human) (UniProt P80188). The description is as above.
The target of test [15] is Native NGAL purchased from Diagnostics Development (Uppsala, Sweden), non-reduced (UniProt P80188). The test is described as above.
Test [16] concerns the target Wild-type recombinant human NGAL monomer expressed in CHO cells (human) (UniProt P80188). The test is described as above.
The target of test [17] is Wild-type recombinant human NGAL dimer expressed in CHO cells (human) (UniProt P80188). As to the kind of experiment: … sandwich CMIA, capture HYB 211-01, detection acridinium-HYB 211-02; curve fit with monomer calibrators; target 250 ng/mL.
Test [18] has as its target Wild-type recombinant human NGAL dimer calibrators treated with DTT (human) (UniProt P80188). The description is as above.
Test [19] has as its target Wild-type recombinant human NGAL monomer expressed in CHO cells (human) (UniProt P80188). The test is described as above.
The target of test [20] is Wild-type recombinant human NGAL dimer calibrators treated with DTT (human) (UniProt P80188). The experiment in a line: … sandwich CMIA, capture HYB 211-01, detection acridinium-HYB 211-02; DTT-treated against untreated dimer calibrator; target 250 ng/mL.
Test [21] deals with Wild-type recombinant human NGAL monomer expressed in CHO cells (human) (UniProt P80188). The experiment in a line: … sandwich CMIA, capture 1-2322-455, detection acridinium-1-903-430; monomer calibrator plus TCEP; NGAL 50 ng/mL.
Test [22] concerns the target Wild-type recombinant human NGAL dimer calibrators with TCEP in the reaction mixture (human) (UniProt P80188). As to the kind of experiment: … sandwich CMIA, capture 1-2322-455, detection acridinium-1-903-430; TCEP in reaction; curve fit with monomer calibrators; target 1000 ng/mL.
Test [23] concerns the target Wild-type recombinant human NGAL dimer expressed in CHO cells (human) (UniProt P80188). The experiment in a line: … sandwich CMIA, capture 1-2322-455, detection acridinium-1-903-430; curve fit with monomer calibrators; target 1000 ng/mL.
The target of test [24] is Wild-type recombinant human NGAL monomer expressed in CHO cells (human) (UniProt P80188). The description is as above.
The target is the same in test [25]. The experiment in a line: … sandwich CMIA, capture 1-2322-455, detection acridinium-1-903-430; monomer calibrator plus TCEP; curve fit with monomer calibrators; target 50 ng/mL.
The target of test [26] is Wild-type recombinant human NGAL dimer calibrators with TCEP in the reaction mixture (human) (UniProt P80188). As to the kind of experiment: … sandwich CMIA, capture 1-2322-455, detection acridinium-1-903-430; TCEP in reaction; curve fit with monomer calibrators; target 250 ng/mL.

Consider “anti-NGAL antibody HYB 211-01 from AntibodyShop A/S, Gentofte, Denmark”, for which the RLUs in test [1] stood at 4050 RLUs; in test [2] it was 11400 RLUs; in test [3] it was 15300 RLUs; in test [4] it was 12000 RLUs; in test [5] it was 282000 RLUs; in test [7] it was 31500 RLUs. Besides, the RLUs came to 101000 RLUs in [8]; 101000 RLUs in test [9]; 31500 RLUs in test [13]; 101000 RLUs in [14]; 151000 RLUs in test [15]; 101000 RLUs in [16]. Also, in [6], the NGAL concentration detected is 23.8 ng/mL. Further, the Curve Fit Results in test [10] was determined as 1.4 ng/mL; in test [11] it was 4.7 ng/mL; in [12], 5.1 ng/mL; in test [17] it was 71.8 ng/mL; in [18], 236 ng/mL; in [19], 251 ng/mL. In test [20], the % Increase due to DTT is 229%.

B1: antibody produced by murine hybridoma cell line 1-2322-455 having ATCC Accession No. PTA-8024 (antibody, V domains shown)
VH: EVQLVESGGGLVQPGGSLKLSCAASGFTFNNYYMSWVRQTPERRLEWVAYISSSGGSTYYSDSVRGRFTISRDTARNTLYLQMTSLKSEDTAMYYCARHFGDYSYFDYWGQGTTLTVSS
VL: DIQMTQSPASLSASVGETVTITCRASENFYSYLAWYQQKQGKSPQLLVYNAKTLAEGVPSRFSGSGSGTQFSLKINSLQPEDFGTYYCQHHYDIPLTFGAGTKLELKR
With B1, in test [21], the RLUs worked out at 241000 RLUs. The Curve Fit Results stood at 497 ng/mL in [22]; 294 ng/mL in test [23]; 1010 ng/mL in [24]; 48.6 ng/mL in test [25]; 126 ng/mL in test [26].
